Reference: the supplement of paper PMC9170038

Tests used:
MS2 coat protein [1] = assay: apparent KD of MS2 coat protein, switch OFF state (with FMN for OFF switches, without FMN for ON switches); designed switch direction (-1 OFF switch, 1 ON switch): 1; higher = weaker reporter binding; details: FMN input: 0 or 200 uM; Eterna round: R93 (includes R88 designs)
Summary of the method: (§1)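 Designed RNA switches, transcribed on-chip from Illumina sequencing clusters, were titrated with SNAP-549-labelled MS2 coat protein from 0.7 or 1.5 nM to 3 µM in twofold steps. The solution was 100 mM Tris-HCl pH 7.5, 80 mM KCl, 4 mM MgCl2, with constant ligand or without it. Apparent KD is the median over each design's normalised cluster binding-curve fits.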

MS2 coat protein [2] = assay: apparent KD of MS2 coat protein, switch ON state; designed switch direction (-1 OFF switch, 1 ON switch): 1; higher = weaker reporter binding; details: FMN input: 0 or 200 uM; Eterna round: R93 (includes R88 designs)
Summary of the method: as §1

GAAAAACAUGAGGAUCACCCAUGUGGAAAUAUGGGAGGAUAUACAAAGACGAAAGUCAAAGUAGAAGGCCUAAAAG [Mat - Same State 1 - Eli mod - D4]
apparent KD of MS2 coat protein (MS2 coat protein [1]): 111 nM
apparent KD of MS2 coat protein (MS2 coat protein [2]): 18.2 nM

GAAAAACAUGAGGAUCACCCAUGUGGAAAUAUGGGAGGAUAUACAAAGACGUAAGUCAAAGUAGAAGGCCUAAAAG [Garnet 94]
apparent KD of MS2 coat protein (MS2 coat protein [1]): 177 nM
apparent KD of MS2 coat protein (MS2 coat protein [2]): 30.8 nM

GAAAUAAAAACACAGGAUAUCCAAAAGAAAACAUGAGGAUCACCCAUGUAAAGAAAAUAAAAAUGGGAGAAGGGUGAAAAUAAAG [Mat - Same State 2 - JL mod - D25]
apparent KD of MS2 coat protein (MS2 coat protein [1]): 93.8 nM
apparent KD of MS2 coat protein (MS2 coat protein [2]): 26.4 nM

GAAAUAAAAACACAGGAUAUCCAAAAGAAAACAUGAGGAUCACCCAUGUAAAGAAAAUAAAAAUGGGAGAAGGGUGAAAUAAAAA [Mat - Same State 2 - JL mod - D27]
apparent KD of MS2 coat protein (MS2 coat protein [1]): 33.8 nM
apparent KD of MS2 coat protein (MS2 coat protein [2]): 30.4 nM

GAACCACAUGAGGAUCACCCAUGUCUAAGAAUGGGAGGAUAUGCACAAAAGGAAAUAACUGCAGAAGGCCUACGAA [62%, Redo, 2]
apparent KD of MS2 coat protein (MS2 coat protein [1]): 129 nM
apparent KD of MS2 coat protein (MS2 coat protein [2]): 23.2 nM

GAAGACAUAGUUCAGGAUAUAGGAAUAGUCACAUGAGGAUCACCCAUGUGCAUUUAUAUGCGCGCUUAGAAGGGAGGUAGUUAUA [SameState2 Malc#21]
apparent KD of MS2 coat protein (MS2 coat protein [1]): 23.9 nM
apparent KD of MS2 coat protein (MS2 coat protein [2]): 24.2 nM

GAAGACAUAGUUCAGGAUAUGGGAAUAGUCACAUGAGGAUCACCCAUGUGCAUUUAUAUGCGCGCUCAGAAGGGAGGUAGAUAAU [Mat - Same state - Malcolm Mod - D118]
apparent KD of MS2 coat protein (MS2 coat protein [1]): 27 nM
apparent KD of MS2 coat protein (MS2 coat protein [2]): 26.9 nM

GAGAAACAUGAGGAUCACCCAUGUAGAAAUAUGGGAGGAUAUACAAAGACGAGAGUCAAAGUAGAAGGCCUAGAAG [77%, Mat - Mod of Eli - With 3 more G's]
apparent KD of MS2 coat protein (MS2 coat protein [1]): 53.6 nM
apparent KD of MS2 coat protein (MS2 coat protein [2]): 18.8 nM

GAUAGACAUGAGGAUCACCCAUGUAGAAUUAUGGGAGGAUAUACAAAGACGAGAGUCAGAGUAGAAGGCCUAGGAG [salish99-ss1-158]
apparent KD of MS2 coat protein (MS2 coat protein [1]): 69.2 nM
apparent KD of MS2 coat protein (MS2 coat protein [2]): 28.1 nM

GCGAAUAUGGGUUAGGAUAUGCGCGCAUGUACAUGAGGAUCACCCAUGUUUACGGGCGCCUUUGAGCAGAAGGAGCUAAUCAACGC [SameState2Try2_Neo]
apparent KD of MS2 coat protein (MS2 coat protein [1]): 24.2 nM
apparent KD of MS2 coat protein (MS2 coat protein [2]): 21.5 nM

GGAAAGAAAAGCGAGGAUAUGCUAGGUAAUACAUGAGGAUCACCCAUGUUUUUUUUUAACAAAUUGCAGAAGGCGCAAGAAAGAAA [Ungainly]
apparent KD of MS2 coat protein (MS2 coat protein [1]): 18.2 nM
apparent KD of MS2 coat protein (MS2 coat protein [2]): 16.5 nM

GGAAAUAAAAGAGAGGAUAUCCAAAAGGAAACAUGAGGAUCACCCAUGUAAAAGAAAGGAAAAUGGGAGAAGGCUCAAAAUAAAG [salish99-ss2-004]
apparent KD of MS2 coat protein (MS2 coat protein [1]): 56.1 nM
apparent KD of MS2 coat protein (MS2 coat protein [2]): 44.2 nM

GGAAAUAACAGAGAGGAUAUCCAAAGGAAAACAUGAGGAUCACCCAUGUAAAAGGAAGGAAAUUGGGAGAAGGCUCAAAAUAAUC [salish99-ss2-017]
apparent KD of MS2 coat protein (MS2 coat protein [1]): 24.3 nM
apparent KD of MS2 coat protein (MS2 coat protein [2]): 23.9 nM

GGAACACAUGAGGAUCACCCAUGUCAAGGAGGUCGAGGAUAUAGGAAAAAAAAAAAAAAAUUAGAAGGUGAGGAGG [V1]
apparent KD of MS2 coat protein (MS2 coat protein [1]): 139 nM
apparent KD of MS2 coat protein (MS2 coat protein [2]): 169 nM

GGAAGACAUGAGGAUCACCCAUGUGGGAAUAUGGGAGGAUAUACAAAGACGAGAGUCAGAGUAGAAGGCCUAGGAA [salish99-ss1-99]
apparent KD of MS2 coat protein (MS2 coat protein [1]): 176 nM
apparent KD of MS2 coat protein (MS2 coat protein [2]): 37.8 nM

GGAGCCGGCACUGAGGAUAUUCAUAUUAAAACAUGAGGAUCACCCAUGUAGGCCAGAAGGCCUUGGGAGAAGGCAGGUCGACUCG [Diqureveri]
apparent KD of MS2 coat protein (MS2 coat protein [1]): 288 nM
apparent KD of MS2 coat protein (MS2 coat protein [2]): 20.8 nM

GGAGUACAUGAGGAUCACCCAUGUUGGAACGAAGUAGGAUAUGUACAAUAUUAAAUAAAAACAGAAGGACUAAUAA [Meow]
apparent KD of MS2 coat protein (MS2 coat protein [1]): 55.1 nM
apparent KD of MS2 coat protein (MS2 coat protein [2]): 30.4 nM

GGAUACAUACAGAAGGAUAUGAGAACAAAGACAUGAGGAUCACCCAUGUACAAAAGGUGGAACAAUCAGAAGGUCUAAACAACAAA [Club and Ball]
apparent KD of MS2 coat protein (MS2 coat protein [1]): 52.1 nM
apparent KD of MS2 coat protein (MS2 coat protein [2]): 57.6 nM
